Residue numbers refer to the chain shown, from its start. Names may count otherwise. Values belong to the binder of their own block, whether it stands above or below them.
Tests used:
[1] = molecular target: CD3 on the surface of cyno HSC-F T cells (Macaca fascicularis (HSC-F), UniProt Q95LI5;Q95LI8); assay: flow cytometry on cells
[2] = molecular target: CD3 on the surface of human Jurkat T cells (Homo sapiens (Jurkat), UniProt P07766;P04234); assay: flow cytometry on cells
[3] = molecular target: Cyno CD3εδ heterodimer, Fc fusion (Macaca fascicularis, UniProt Q95LI5;Q95LI8); assay: BLI
[4] = molecular target: Human CD3 epsilon-delta (εδ) heterodimer, Fc fusion (Homo sapiens, UniProt P07766;P04234); assay: BLI
Chain of Human CD3 epsilon-delta (εδ) heterodimer, Fc fusion (P07766 23-126, stated change not applied, chain 1 of 2): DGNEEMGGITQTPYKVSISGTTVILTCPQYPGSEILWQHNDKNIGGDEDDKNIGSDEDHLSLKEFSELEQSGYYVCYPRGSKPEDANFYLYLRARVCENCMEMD
Chain of Human CD3 epsilon-delta (εδ) heterodimer, Fc fusion (P04234 22-100, stated change not applied, chain 2 of 2): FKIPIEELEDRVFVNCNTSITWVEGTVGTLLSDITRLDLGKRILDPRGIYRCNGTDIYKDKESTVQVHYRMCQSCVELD

Chain of CD3 on the surface of cyno HSC-F T cells (Q95LI5 22-198, one chain of several): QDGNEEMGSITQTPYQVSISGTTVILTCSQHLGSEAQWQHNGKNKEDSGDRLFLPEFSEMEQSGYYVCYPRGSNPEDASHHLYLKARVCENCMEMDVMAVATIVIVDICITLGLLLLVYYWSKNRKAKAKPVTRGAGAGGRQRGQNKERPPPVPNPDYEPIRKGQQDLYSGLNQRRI
Chain of Cyno CD3εδ heterodimer, Fc fusion (Q95LI5 22-117, stated change not applied, chain 1 of 2): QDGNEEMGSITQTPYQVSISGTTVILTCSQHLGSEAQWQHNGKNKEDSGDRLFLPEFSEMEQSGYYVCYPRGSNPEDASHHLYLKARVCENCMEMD
Chain of Cyno CD3εδ heterodimer, Fc fusion (Q95LI8 22-100, stated change not applied, chain 2 of 2): as the sequence (P04234 22-100, stated change not applied, chain 2 of 2) above, with I5V, N15K, I20V, S32T, D33N, I34N, T64A, S74N counted along it
Chain of CD3 on the surface of human Jurkat T cells (P07766 23-207, one chain of several): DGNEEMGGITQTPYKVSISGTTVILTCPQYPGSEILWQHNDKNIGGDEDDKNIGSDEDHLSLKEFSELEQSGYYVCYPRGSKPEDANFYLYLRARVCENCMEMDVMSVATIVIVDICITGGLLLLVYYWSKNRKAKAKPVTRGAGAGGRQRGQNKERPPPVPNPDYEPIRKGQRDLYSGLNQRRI

binding result [1]: binds | binding result [2]: binds | binding result [3]: binds | binding result [4]: binds
B1: ADI-26906 IgG1 variant L3-R94E (antibody, V domains shown)
VH: QVQLVQSGAEVKKPGASVKVSCKASGFNIKDYYMHWVRQAPGQRLEWMGWIDLENANTIYDAKFQGRVTITRDTSASTAYMELSSLRSEDTAVYYCARDAYGRYFYDVWGQGTLVTVSS
VL: DIVMTQSPDSLAVSLGERATINCKSSQSLLNARTGKNYLAWYQQKPGQPPKLLIYWASTRESGVPDRFSGSGSGTDFTLTISSLQAEDVAVYYCKQSYSERTFGGGTKVEIK

binding result [1]: binds | binding result [3]: binds
B2: ADI-26906 IgG1 (antibody, V domains shown)
VH: B1 VH
VL: B1 VL with E100R

binding result [1]: binds
B3: ADI-26906 Fab (from CHO-produced IgG, papain digest) (Fab, V domains shown)
VH: B1 VH
VL: B1 VL with E100R
